Measurements reported in doi:10.1101/2025.07.03.659157, “Transient Poly(ADP-Ribose) Triggers FUS Condensation Hysteresis via a Prion-Like Mechanism” (bioRxiv, 2025).

What was measured:
[1] = tested on: FUS with all 15 RGG3-PY arginines to alanine; assay: fluorescence anisotropy or EMSA (method not given); conditions: poly(ADP-ribose); length not given in material; EMSA and anisotropy: 50 mM Tris-HCl pH 7.5, 100 mM KCl, 10 mM beta-mercaptoethanol, 0.1 mg/mL BSA, 2 mM MgCl2, 23 C, 30 min; single-molecule: 20 mM Tris-HCl pH …
FUS RGG3-PY fragment = assay: fluorescence anisotropy; conditions: poly(ADP-ribose); length not given in material; EMSA and anisotropy: 50 mM Tris-HCl pH 7.5, 100 mM KCl, 10 mM beta-mercaptoethanol, 0.1 mg/mL BSA, 2 mM MgCl2, 23 C, 30 min; single-molecule: 20 mM Tris-HCl pH …
[RGRGG]5 peptide = EMSA; conditions: poly(ADP-ribose), 16 ADP-ribose units; no base sequence; EMSA and anisotropy: 50 mM Tris-HCl pH 7.5, 100 mM KCl, 10 mM beta-mercaptoethanol, 0.1 mg/mL BSA, 2 mM MgCl2, 23 C, 30 min; single-molecule: 20 mM Tris-HCl pH …
[KGKGG]5 peptide = EMSA; conditions: poly(ADP-ribose), 16 ADP-ribose units; no base sequence; EMSA and anisotropy: 50 mM Tris-HCl pH 7.5, 100 mM KCl, 10 mM beta-mercaptoethanol, 0.1 mg/mL BSA, 2 mM MgCl2, 23 C, 30 min; single-molecule: 20 mM Tris-HCl pH …
[KGYGG]5 peptide = EMSA; conditions: poly(ADP-ribose), 16 ADP-ribose units; no base sequence; EMSA and anisotropy: 50 mM Tris-HCl pH 7.5, 100 mM KCl, 10 mM beta-mercaptoethanol, 0.1 mg/mL BSA, 2 mM MgCl2, 23 C, 30 min; single-molecule: 20 mM Tris-HCl pH …
[RGYGG]5 peptide = EMSA; conditions: poly(ADP-ribose), 16 ADP-ribose units; no base sequence; EMSA and anisotropy: 50 mM Tris-HCl pH 7.5, 100 mM KCl, 10 mM beta-mercaptoethanol, 0.1 mg/mL BSA, 2 mM MgCl2, 23 C, 30 min; single-molecule: 20 mM Tris-HCl pH …
[2] = target: T1, His-MBP-tagged PrLD (prion-like domain) of FUS (Fused in Sarcoma); assay: BLI
T1 chain: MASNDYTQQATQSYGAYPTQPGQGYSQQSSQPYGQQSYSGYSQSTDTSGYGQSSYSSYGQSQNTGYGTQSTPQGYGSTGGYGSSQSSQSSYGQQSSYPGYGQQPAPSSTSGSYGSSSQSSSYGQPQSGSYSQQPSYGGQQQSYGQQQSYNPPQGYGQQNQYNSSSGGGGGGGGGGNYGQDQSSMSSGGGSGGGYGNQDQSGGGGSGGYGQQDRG

[3] = target: T2, His-MBP-tagged PrLD (prion-like domain) of FUS (Fused in Sarcoma); assay: BLI; His-MBP-tagged PrLD (400 nM) immobilised on HIS1K (anti-His) biosensors; analyte in PBSA (PBS + 0.1% BSA), MBP-tagged CTRR at 0.4, 1, 2, 5 and 12 uM; association 600 s, dissociation 600 s; Octet RED96; association phase fitted to an exponential kinetic binding model; conditions: both partners purified
T2 chain: T1 chain

AF488-PAR (anisotropy)
binding signal (fold weaker than wild-type FUS) [1]: 2.7 | binding signal (fold weaker than full-length FUS) (FUS RGG3-PY fragment): 3

Cy3-PAR 16-mer
Kd ([RGRGG]5 peptide): 0.8 µM | Kd ([KGKGG]5 peptide): 24 µM | Kd ([KGYGG]5 peptide): 29 µM | Kd ([RGYGG]5 peptide): 10 µM

B1: MBP-tagged CTRR (C-terminal RGG-rich region, RGG2-ZnF-RGG3-PY) of FUS (domain or fragment)
chain: RADFNRGGGNGRGGRGRGGPMGRGGYGGGGSGGGGRGGFPSGGGGGGGQQRAGDWKCPNPTCENMNFSWRNECNQCKAPKPDGPGGGPGGSHMGGNYGDDRRGGRGGYDRGGYRGRGGDRGGFRGGRGGGDRGGFGPGKMDSRGEHRQDRRERPY
modifications: MBP tag omitted. Limits are not printed: start taken just after the RRM (285-371), running to the C-terminus (RGG2-ZnF-RGG3-PY). Zn2+ in the RanBP2-type zinc finger. His-MBP tag omitted. Limits are not printed: 1-214 is the conventional FUS PrLD/low-complexity domain, and it includes Y177, which the paper places in the PrLD.
koff [2]: 0.00052 s⁻¹

B2: MBP-tagged CTRR (C-terminal RGG-rich region, RGG2-ZnF-RGG3-PY) of FUS (domain or fragment)
chain: B1 chain
modifications: MBP tag omitted. Limits are not printed: start taken just after the RRM (285-371), running to the C-terminus (RGG2-ZnF-RGG3-PY). Zn2+ in the RanBP2-type zinc finger. / His-MBP tag omitted. Limits are
Kd [3]: 1.37 µM
